The record followed here is article PMC10849960 (2023).

The target of test [1] is 29. As to the kind of experiment: FP.
For test [2], the target named is 361. Briefly: FP.
The target in test [3] is 411. As to the kind of experiment: FP.
Test [4] addresses T1, Mcl-1 (UniProt Q07820 1-350).
T1 chain: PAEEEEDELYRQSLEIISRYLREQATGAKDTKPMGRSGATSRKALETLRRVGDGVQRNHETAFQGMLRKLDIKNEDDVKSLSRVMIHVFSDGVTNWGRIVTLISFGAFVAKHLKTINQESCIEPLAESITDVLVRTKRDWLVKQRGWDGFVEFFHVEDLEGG
Briefly: ITC.

The target of test [5] is 29. Briefly: ITC.
The target in test [6] is Hallucinated Bid binder (7 nM). Briefly: ITC.
Test [7] addresses 411. Briefly: ITC.
Test [8] addresses T1, Mcl-1. Briefly: FP.
Test [9] addresses 361. Briefly: ITC; 10 °C.
In test [10] the target is best parametrically designed PTH binder. As to the kind of experiment: split NanoBiT.

Ends that are not written are not given here.

With SESQEDIIRNIARHLAQVGDSMDRSIPPGLVNGL (also: fluorescently labelled (label and position not shown)) [Bid BH3 peptide], the dissociation constant (Kd) came to 40 nM in the test with 29 [1]; 490 nM in the test with 361 [2]; 23 nM in the test with 411 [3]; 770 nM with Mcl-1 [4]; 180 nM with 29 [5]; 25 nM in [6]. For the same molecule, the Kd in the test with 411 [7] is 410 nM; in the test with Mcl-1 [8] it was 106 nM; with 361 [9] it was 1200 nM.
Regarding SVSEIQLMHNLGKHLNSMERVEWLRKKLQDVHNF (also: fluorescently labelled (label and position not shown)) [parathyroid hormone (PTH)], the dissociation constant (Kd) in [10] is > 1000 nM.
